From the supplement of paper PMC10567573

B1: SLC6A17 (parent)
chain: HMFTPKLDKMLDPQVWREAATQVF

Variants of: B1
Experiment: protein stability index of a GFP-peptide fusion (GPS, HEK-293T) (PSI 1-6); higher = more stable
Conditions: c terminus: a fixed tail appended
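Further: lentivirally expressed fusions sorted by FACS into six bins by GFP to DsRed ratio, PSI derived from sequencing read proportions per bin multiplied by bin number.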

Protein stability index, by site and new letter:
F3: H 2.17, P 2.65, D 2.69, M 1.81, V 2.7, R 2.4, L 1.99, N 2.86, I 2.45, Q 2.17, A 2.2, K 1.98, W 2.07, E 3.49, G 1.91, T 2.01, S 2.27, Y 2.6, C 2.25
D8: N 2.33, A 1.82, P 3.01, V 1.34, E 1.5, G 2.06, C 1.67, Q 1.87, M 1.81, Y 2, F 2.81, K 2.79, R 3.33, S 2.3, H 1.84, L 1.76, T 2.27, I 1.65, W 1.86
L7: R 1.89, S 2.02, P 2.1, V 1.79, K 2.73, Y 1.46, Q 2.55, H 1.79, G 2.24, M 2.38, D 2.55, A 1.94, E 2.86, C 1.86, W 1.62, T 2.27, N 1.99, I 1.4, F 1.8
M10: V 1.85, I 1.74, S 2.17, Y 2.23, W 2.05, F 2.59, Q 2.78, L 3.08, P 2.4, C 2.31, K 1.78, E 2.57, G 2.15, R 1.78, N 1.99, D 2.63, T 1.66, H 1.42
R17: S 2.8, V 2.18, L 3.05, W 1.6, I 2.08, P 1.89, A 1.36, D 2.46, G 2, F 1.27, M 2.42, H 1.74, N 2.26, K 1.11, C 1.39, T 1.82, Q 1.84, E 2.3, Y 1.18
D12: Y 1.34, A 1.98, Q 2.2, F 1.63, I 1.79, M 1.42, P 1.91, W 2.8, R 1.81, S 1.98, N 1.34, V 1.32, E 1.39, K 1.63, H 1.66, G 1.3, T 2.45, C 2.67
H1: S 2.06, D 2.3, M 2.74, A 2.73, K 1.5, G 1.79, E 2.17, Q 2.29, L 1.88, T 1.46, Y 1.79, F 2.13, V 2.51, P 2.72, C 1.56, R 1.98, N 1.56
A19: E 1.96, H 2.14, G 1.63, C 3.43, D 2.21, F 2.03
M2: N 2.43, T 2.14, K 2.13, H 2.49, L 1.71, V 1.62, W 1.81, Y 2.84, A 1.9, Q 2.52, S 2.03, R 2.56, G 1.92, I 2.53, E 2.49, D 2.34, P 2.36, F 1.65, C 2.01
K9: G 1.25, P 3.02, D 2.63, Y 1.33, M 2.03, S 1.53, V 1.5, T 2.1, I 1.66, R 2.42, Q 1.92, E 1.58, F 1.52, N 2.04, W 2.95, L 1.83, A 1.21, H 2.94
V15: R 3.24, Y 2.12, G 1.96, E 2.84, A 2.38, F 2.22, W 2.24, M 1.63, I 1.35, D 2.96, P 2.81, H 2.34, K 2.39, Q 1.89, C 2.12, N 1.9, T 2.66, L 2.37, S 2.15
T4: S 2.67, A 2.4, W 2.21, E 2.31, L 2.69, P 2.07, I 1.45, F 1.9, D 1.76, Y 2.11, H 1.79, Q 1.8, R 2.39, N 1.39, G 2.1, K 1.67, C 2.49, M 2.97
Q14: T 2.23, A 1.73, E 2.41, K 2.26, I 1.12, N 2.23, G 1.56, V 2.51, W 1.69, P 1.63, L 2.14, H 1.74, M 2.06, S 1.59, Y 2.03, R 1.94, F 2.13
L11: M 2.05, N 2.29, G 2.9, V 1.87, D 1.87, P 2.16, K 2.24, Y 2.43, C 2.17, I 2.39, R 3.13, W 1.63, A 1.55, F 2.33, S 2.18, Q 2.35, H 2.23, T 2.18
E18: D 1.87, R 3.18, G 1.02, I 1.97, M 1.52, K 1.08, V 2.37, N 2.3, A 2.04, S 1.99, C 1.29, P 1.86, Q 2.22, T 1.79, L 1.38, F 1.85, Y 1.75, H 1.91
P5: Y 2.08, H 1.85, D 2.61, I 3.2, S 2.09, A 2.46, Q 2.49, M 1.03, K 1.69, R 1.78, W 1.3, L 1.55, T 1.53, G 1.61, V 1.69, E 2.4, C 1.53
W16: S 2.87, H 3.88, N 3.2, T 3.05, G 3.27, I 2.33, P 3.78, A 2.47, R 3.72, C 2.75, M 2.14, F 2.47, L 2.34, Y 2.62, D 3.83, V 2.59, K 2.94, E 3.76, Q 3.06
K6: S 1.89, Y 2.85, M 1.62, V 1.24, A 1.99, N 2.11, F 1.65, W 2.1, D 2.67, Q 1.51, G 1.8, H 1.83, P 2.01, R 1.76, I 1.7, C 1.98, E 1.74, T 1.74, L 2.1
P13: S 1.93, H 1.54, T 1.76, D 1.79, K 2.34, W 1, I 1.29, A 2, N 2.4, F 1.67, V 2.11, Q 2.19, M 2.33, C 1.82, Y 1.69, E 2.4, L 1.86
